The source of these data is paper doi:10.1101/2022.01.04.474980.

For the test, the target named is FRQ WT peptide … (FFD and the double arginines) (N. crassa). The test can be described thus: peptide or protein array.

“FREQUENCY-Interacting RNA Helicase, FRHΔ100 (E. coli expressed, 6x His-tag) (from UniProt Q1K502 100-1106) (domain or fragment)” yielded a normalized microarray intensity of 64.
